Assay results taken from PMC9352680, “A comprehensive thermodynamic model for RNA binding by the Saccharomyces cerevisiae Pumilio protein PUF4”.

T1: PUF4 RNA-binding domain (Saccharomyces cerevisiae, UniProt P25339 537-888)
T1 sequence: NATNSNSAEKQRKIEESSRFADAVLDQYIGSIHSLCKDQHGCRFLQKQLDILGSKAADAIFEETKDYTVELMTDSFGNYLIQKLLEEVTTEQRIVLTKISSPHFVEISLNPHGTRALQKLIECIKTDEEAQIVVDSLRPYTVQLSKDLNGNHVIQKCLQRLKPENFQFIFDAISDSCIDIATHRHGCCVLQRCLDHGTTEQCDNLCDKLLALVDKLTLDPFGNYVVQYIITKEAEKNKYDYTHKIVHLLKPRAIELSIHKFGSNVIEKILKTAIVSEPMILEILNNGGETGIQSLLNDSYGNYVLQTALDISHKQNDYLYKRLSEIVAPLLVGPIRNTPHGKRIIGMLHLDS

B1: Ic_S1_P5E.1_K5.1_C5.1_H5.1_A5.1_[T6G]_[A7C]_F5.1_[T8A]_[T9G]_[A10T]_T5.1 (ssRNA)
RNA: UCUCUUUGUAUGCAGUUCUCUU
B2: Ic_S1_P5E.1_K5.1_C5.1_H5.1_A5.1_[T5C]_[T6C]_F5.1_[T9A]_[A10C]_T5.1 (ssRNA)
RNA: UCUCUUUGUACCAUACUCUCUU
B3: Ic_S1_P5E.1_K5.1_C5.1_H5.1_A5.1_[T5C]_[T6A]_[A7C]_F5.1_[T8C]_[T9A]_[A10T]_T5.1 (ssRNA)
RNA: UCUCUUUGUACACCAUUCUCUU
B4: Ic_S1_P5E.1_K5.1_C5.1_H5.1_A5.1_[T6A]_[A7T]_F5.1_[T8A]_[T9A]_T5.1 (ssRNA)
RNA: UCUCUUUGUAUAUAAAUCUCUU
B5: Ic_S1_P5E.1_K5.1_C5.1_H5.1_A5.1_[T6G]_[A7T]_F5.1_[T8C]_[T9C]_T5.1 (ssRNA)
RNA: UCUCUUUGUAUGUCCAUCUCUU
B6: Ic_S1_P5E.1_K5.1_C5.1_H5.1_A5.1_[T6G]_[A7G]_F5.1_[T8C]_[T9A]_[A10T]_T5.1 (ssRNA)
RNA: UCUCUUUGUAUGGCAUUCUCUU
B7: Ic_S1_P5E.1_K5.1_C5.1_H5.1_A5.1_[T6A]_[A7C]_F5.1_[T8G]_[T9G]_[A10T]_T5.1 (ssRNA)
RNA: UCUCUUUGUAUACGGUUCUCUU
B8: Ic_S1_P5E.1_K5.1_C5.1_H5.1_A5.1_[T6C]_[A7T]_F5.1_[T8A]_[A10C]_T5.1 (ssRNA)
RNA: UCUCUUUGUAUCUAUCUCUCUU
B9: Ic_S1_P5E.1_K5.1_C5.1_H5.1_A5.1_[T6C]_[A7G]_F5.1_[T8C]_[T9C]_[A10G]_T5.1 (ssRNA)
RNA: UCUCUUUGUAUCGCCGUCUCUU
B10: Ic_S1_P5E.1_K5.1_C5.1_H5.1_A5.1_[T5C]_[T6C]_[A7T]_F5.1_[T8G]_[T9G]_[A10C]_T5.1 (ssRNA)
RNA: UCUCUUUGUACCUGGCUCUCUU
B11: Ic_S1_P5E.1_K5.1_C5.1_H5.1_A5.1_[T5C]_[T6A]_[A7T]_F5.1_[T8G]_[A10T]_T5.1 (ssRNA)
RNA: UCUCUUUGUACAUGUUUCUCUU
B12: Ic_S1_P5E.1_K5.1_C5.1_H5.1_A5.1_[A7G]_F5.1_[T8C]_[T9C]_T5.1 (ssRNA)
RNA: UCUCUUUGUAUUGCCAUCUCUU
B13: Ic_S1_P5E.1_K5.1_C5.1_H5.1_A5.1_[T6A]_[A7C]_F5.1_[T9A]_[A10C]_T5.1 (ssRNA)
RNA: UCUCUUUGUAUACUACUCUCUU
B14: Ic_S1_P5E.1_K5.1_C5.1_H5.1_A5.1_[T6G]_[A7G]_F5.1_[T8C]_[A10G]_T5.1 (ssRNA)
RNA: UCUCUUUGUAUGGCUGUCUCUU
B15: Ic_S1_P5E.1_K5.1_C5.1_H5.1_A5.1_[T5A]_[A7T]_F5.1_[T8G]_[T9C]_[A10C]_T5.1 (ssRNA)
RNA: UCUCUUUGUAAUUGCCUCUCUU
B16: Ic_S1_P5E.1_K5.1_C5.1_H5.1_A5.1_[T5G]_[A7T]_F5.1_[T8A]_[A10T]_T5.1 (ssRNA)
RNA: UCUCUUUGUAGUUAUUUCUCUU
B17: Ic_S1_P5E.1_K5.1_C5.1_H5.1_A5.1_[T5C]_[T6C]_[A7T]_F5.1_[T8C]_[T9G]_T5.1 (ssRNA)
RNA: UCUCUUUGUACCUCGAUCUCUU
B18: Ic_S1_P5E.1_K5.1_C5.1_H5.1_A5.1_[T5A]_F5.1_[T9A]_[A10T]_T5.1 (ssRNA)
RNA: UCUCUUUGUAAUAUAUUCUCUU
B19: Ic_S1_P5E.1_K5.1_C5.1_H5.1_A5.1_[T5C]_[T6G]_F5.1_[T8A]_[T9C]_[A10C]_T5.1 (ssRNA)
RNA: UCUCUUUGUACGAACCUCUCUU
B20: Ib_S1_P3E.1_K3.1_C3.1_H3.1_A3.1_[A6T]_F3.1_[A8T]_T3.1 (ssRNA)
RNA: UCUCUUUGUAUUUUUCUCUU
B21: Ic_S1_P5E.1_K5.1_C5.1_H5.1_A5.1_[T6A]_[A7C]_F5.1_[T8C]_[T9A]_[A10C]_T5.1 (ssRNA)
RNA: UCUCUUUGUAUACCACUCUCUU
B22: Ic_S1_P5E.1_K5.1_C5.1_H5.1_A5.1_[T5C]_[A7C]_F5.1_[T8C]_[T9C]_T5.1 (ssRNA)
RNA: UCUCUUUGUACUCCCAUCUCUU
B23: Ic_S1_P5E.1_K5.1_C5.1_H5.1_A5.1_[T5A]_F5.1_[T8C]_[A10T]_T5.1 (ssRNA)
RNA: UCUCUUUGUAAUACUUUCUCUU
B24: Ic_S1_P5E.1_K5.1_C5.1_H5.1_A5.1_[T5A]_[A7C]_F5.1_[T8C]_[A10T]_T5.1 (ssRNA)
RNA: UCUCUUUGUAAUCCUUUCUCUU
B25: Ic_S1_P3E.1_K3.1_C3.1_H3.1_A3.1_[A6C]_F3.1_[A8T]_T3.1 (ssRNA)
RNA: UCUCUUUGUAUCUUUCUCUU
B26: Ic_S1_P5E.1_K5.1_C5.1_H5.1_A5.1_[T6C]_[A7C]_F5.1_[T8G]_[A10G]_T5.1 (ssRNA)
RNA: UCUCUUUGUAUCCGUGUCUCUU
B27: Ic_S1_P5E.1_K5.1_C5.1_H5.1_A5.1_[T5G]_[T6C]_F5.1_[T8G]_[T9C]_[A10T]_T5.1 (ssRNA)
RNA: UCUCUUUGUAGCAGCUUCUCUU
B28: Ic_S1_P5E.1_K5.1_C5.1_H5.1_A5.1_[T5A]_[T6G]_[A7C]_F5.1_[T8C]_[T9A]_[A10T]_T5.1 (ssRNA)
RNA: UCUCUUUGUAAGCCAUUCUCUU
B29: Ic_S1_P5E.1_K5.1_C5.1_H5.1_A5.1_[T5C]_[T6C]_[A7T]_F5.1_[T8G]_[T9C]_[A10C]_T5.1 (ssRNA)
RNA: UCUCUUUGUACCUGCCUCUCUU
B30: Ib_S1_P3E.1_K3.1_C3.1_H3.1_[T1G]_[G2T]_A3.1_F3.1_T3.1 (ssRNA)
RNA: UCUCUUGUUAUAUAUCUCUU
B31: Ic_S1_P5E.1_K5.1_C5.1_H5.1_A5.1_[T5A]_[T6G]_[A7T]_F5.1_[T8A]_T5.1 (ssRNA)
RNA: UCUCUUUGUAAGUAUAUCUCUU
B32: Ic_S1_P5E.1_K5.1_C5.1_H5.1_A5.1_[T6G]_[A7G]_F5.1_[T9A]_T5.1 (ssRNA)
RNA: UCUCUUUGUAUGGUAAUCUCUU
B33: Ic_S1_P5E.1_K5.1_C5.1_H5.1_A5.1_[T5C]_[A7T]_F5.1_[T8C]_T5.1 (ssRNA)
RNA: UCUCUUUGUACUUCUAUCUCUU
B34: Ic_S1_P5E.1_K5.1_C5.1_H5.1_A5.1_[T5C]_[T6C]_[A7C]_F5.1_[T9A]_[A10G]_T5.1 (ssRNA)
RNA: UCUCUUUGUACCCUAGUCUCUU
B35: Ic_S1_P5E.1_K5.1_C5.1_H5.1_A5.1_[T5C]_[T6G]_[A7T]_F5.1_[T8C]_[T9A]_[A10T]_T5.1 (ssRNA)
RNA: UCUCUUUGUACGUCAUUCUCUU
B36: Ic_S1_P5E.1_K5.1_C5.1_H5.1_A5.1_[T5C]_[T6G]_[A7T]_F5.1_[T8A]_[T9A]_[A10T]_T5.1 (ssRNA)
RNA: UCUCUUUGUACGUAAUUCUCUU
B37: Ic_S1_P5E.1_K5.1_C5.1_H5.1_A5.1_[T5A]_[T6A]_[A7C]_F5.1_[T8G]_[T9C]_[A10C]_T5.1 (ssRNA)
RNA: UCUCUUUGUAAACGCCUCUCUU
B38: Ic_S1_P5E.1_K5.1_C5.1_H5.1_A5.1_[T5A]_[T6G]_[A7T]_F5.1_[T8A]_[T9C]_[A10G]_T5.1 (ssRNA)
RNA: UCUCUUUGUAAGUACGUCUCUU
B39: Ic_S1_P5E.1_K5.1_C5.1_H5.1_A5.1_[T5A]_[T6A]_[A7T]_F5.1_[T8C]_[T9A]_[A10C]_T5.1 (ssRNA)
RNA: UCUCUUUGUAAAUCACUCUCUU
B40: Ic_S1_P5E.1_K5.1_C5.1_H5.1_A5.1_[T5A]_[T6G]_[A7C]_F5.1_[A10T]_T5.1 (ssRNA)
RNA: UCUCUUUGUAAGCUUUUCUCUU
B41: Ic_S1_P5E.1_K5.1_C5.1_H5.1_A5.1_[T5A]_[T6G]_[A7T]_F5.1_[A10G]_T5.1 (ssRNA)
RNA: UCUCUUUGUAAGUUUGUCUCUU
B42: Ib_S1_P3E.1_K3.1_C3.1_H3.1_[T1G]_[T3C]_A3.1_F3.1_T3.1 (ssRNA)
RNA: UCUCUUGGCAUAUAUCUCUU
B43: Ic_S1_P5E.1_K5.1_C5.1_H5.1_A5.1_[T5C]_[A7T]_F5.1_[T8C]_[T9A]_[A10T]_T5.1 (ssRNA)
RNA: UCUCUUUGUACUUCAUUCUCUU
B44: Ic_S1_P5E.1_K5.1_C5.1_H5.1_A5.1_[A7G]_F5.1_[T9C]_[A10T]_T5.1 (ssRNA)
RNA: UCUCUUUGUAUUGUCUUCUCUU
B45: Ic_S1_P5E.1_K5.1_C5.1_H5.1_A5.1_[A7C]_F5.1_[T8C]_[T9C]_T5.1 (ssRNA)
RNA: UCUCUUUGUAUUCCCAUCUCUU
B46: Ic_S1_P5E.1_K5.1_C5.1_H5.1_A5.1_[T5A]_[T6G]_[A7T]_F5.1_[T9G]_[A10T]_T5.1 (ssRNA)
RNA: UCUCUUUGUAAGUUGUUCUCUU
B47: Ic_S1_P5E.1_K5.1_C5.1_H5.1_A5.1_[T5C]_[T6A]_[A7C]_F5.1_[T8C]_[T9C]_[A10C]_T5.1 (ssRNA)
RNA: UCUCUUUGUACACCCCUCUCUU
B48: Ic_S1_P5E.1_K5.1_C5.1_H5.1_A5.1_[T5A]_[T6A]_F5.1_[A10T]_T5.1 (ssRNA)
RNA: UCUCUUUGUAAAAUUUUCUCUU
B49: Ic_S1_P5E.1_K5.1_C5.1_H5.1_A5.1_[T5A]_[T6C]_F5.1_[T8G]_[T9C]_[A10C]_T5.1 (ssRNA)
RNA: UCUCUUUGUAACAGCCUCUCUU
B50: Ic_S1_P5E.1_K5.1_C5.1_H5.1_A5.1_[T5A]_[T6C]_[A7T]_F5.1_[T8G]_[T9A]_[A10C]_T5.1 (ssRNA)
RNA: UCUCUUUGUAACUGACUCUCUU

Target: T1, PUF4 RNA-binding domain
Test: Mg; RNA-MaP; 20 mM Na-HEPES pH 7.4, 30 mM KOAc, 0.75 mM MgCl2, 0.1% Tween-20, 5% glycerol, 0.1 mg/mL BSA, 2 mM DTT; 25 C; 0.0125-409.6 nM protein
Settings: tags: N-His6-TEV cleaved; C-SNAP kept, Cy3B-labelled; label: tethered on chip by stalled RNA polymerase

Row | Binder | Kd [nM]
1 | B1 | 1990
2 | B2 | 1.59
3 | B3 | 16.1
4 | B4 | 8.13
5 | B5 | 363
6 | B6 | 1040
7 | B7 | 90.4
8 | B8 | 41.5
9 | B9 | > 2300
10 | B10 | 489
11 | B11 | 27.2
12 | B12 | 955
13 | B13 | 2.89
14 | B14 | 2120
15 | B15 | 645
16 | B16 | 705
17 | B17 | 660
18 | B18 | 2.21
19 | B19 | 1700
20 | B20 | 26.1
21 | B21 | 20.7
22 | B22 | 1300
23 | B23 | 212
24 | B24 | 697
25 | B25 | 32.3

Row | Binder | Kd [nM]
26 | B26 | 1060
27 | B27 | > 2300
28 | B28 | 317
29 | B29 | 353
30 | B30 | 47
31 | B31 | 95
32 | B32 | 32.1
33 | B33 | 7.77
34 | B34 | 4.32
35 | B35 | 96.5
36 | B36 | 126
37 | B37 | 1060
38 | B38 | 2240
39 | B39 | 63.1
40 | B40 | 643
41 | B41 | 697
42 | B42 | > 2300
43 | B43 | 75.9
44 | B44 | 101
45 | B45 | 587
46 | B46 | 495
47 | B47 | 113
48 | B48 | 23.8
49 | B49 | 1140
50 | B50 | 448
